What was measured:
[1] = tested on: VLA-4-overexpressing B16F10 mouse melanoma cells; experiment: Cell internalization assay; assay type: cell-based; conditions: 10 pmol per well
[2] = tested on: C57BL/6 mice bearing B16F10 xenografts
in vivo [3] = conditions: female, C57BL/6, mouse, iv, total radioactivity
in vivo [4] = conditions: female, C57BL/6, mouse, tumor and muscle, iv, total radioactivity

Cc1ccccc1NC(=O)Nc1ccc(CC(=O)N[C@@H](CCCCNC(=O)/C=C/c2cccnc2)C(=O)N[C@@H](CCCC(=O)O)C(=O)NC2(C(=O)NCCOCCOCCOCCOCC(=O)N[C@@H](CCCCNC(=S)Nc3ccc(CCCN(CCN4CCN(CC(=O)O)CCN(CC(=O)O)CC4)CC(=O)O)cc3)C(N)=O)CCCCC2)cc1 [^64Cu-NE3TA-PEG4-LLP2A, metal not drawn]
time at which internalization became saturated ([1]; time points 15 min, 1 h, 2 h, 4 h): ~ 2 h | specific internalization (total minus blocked) ([1]; up to 4 h, blocking with unlabeled LLP2A-PEG4 10 μg per well): High specific internalization | liver and kidney uptake ([2]; biodistribution): relatively low | uptake in tumor, spleen, bone, lung, and thymus with blocking ([2]; coinjection of excess unlabeled LLP2A-PEG4 (100 μg)): significantly reduced | tissue to tissue ratio at 4 h (in vivo [3]; tumor and blood): 16.8 ± 1.8 | tissue to tissue ratio at 24 h (in vivo [3]; tumor and muscle): 25.2 ± 7.8 | tissue to tissue ratio at 2 h (in vivo [4]): 13.1 ± 2.4 | tissue to tissue ratio at 4 h (in vivo [4]): 30.9 ± 0.7

Source: article PMC4949121 (Inorganic chemistry, 2016)
